B1: FIC-1_(134-508) E274G/I298D (domain or fragment, C. elegans, UniProt Q23544 134-508, looked up)
chain: DEKRENDPAKVKEAILAAKAAGRSRKDGNLERAMTIMEHAMALAPTNPQILIEMGQIREMHNELVEADQCYVKALAYDPGNSEALVLRARTTPLVSAIDRKMLRSVHDLRDEFNHLQHSTALRRMMRETYFLYVYHTVAIGGNTLSLGQTRAILESGMVIPGKSDREHNEVIGMDAALRFLNCSLLSKEHDEISIDDILEMHRRVLGNADPVEAGRIRTTQVYVGRFTPVSPEYVMEQLKDIVDWLNDESTLTIDPIERAAIAHYKLVLVHPFTDGNGRTARLLLNLIMMRSGFPPVILPVETRAEYYASLHVANLGDLRPFVRYVAKHSEASIQRYIGAMKTSSDNILNSGDSKLTPEESEVSEKIEAECRAGN
B2: FIC-1_(134-508) (domain or fragment, C. elegans, UniProt Q23544 134-508, looked up)
chain: DEKRENDPAKVKEAILAAKAAGRSRKDGNLERAMTIMEHAMALAPTNPQILIEMGQIREMHNELVEADQCYVKALAYDPGNSEALVLRARTTPLVSAIDRKMLRSVHDLRDEFNHLQHSTALRRMMRETYFLYVYHTVAIEGNTLSLGQTRAILESGMVIPGKSIREHNEVIGMDAALRFLNCSLLSKEHDEISIDDILEMHRRVLGNADPVEAGRIRTTQVYVGRFTPVSPEYVMEQLKDIVDWLNDESTLTIDPIERAAIAHYKLVLVHPFTDGNGRTARLLLNLIMMRSGFPPVILPVETRAEYYASLHVANLGDLRPFVRYVAKHSEASIQRYIGAMKTSSDNILNSGDSKLTPEESEVSEKIEAECRAGN
notes: C. elegans Fic protein FIC-1, residues 134-508; transmembrane helix and membrane proximal domain excluded; also called FIC-1 wild type; FIC-1 wildtype (wt); source: E. coli LOBSTR-RIL(DE3), purified (Ni-Sepharose, size-exclusion chromatography); not shown: His6, N-terminal, kept
B3: FIC-1_(134-508) E274G (domain or fragment, C. elegans, UniProt Q23544 134-508, looked up)
chain: DEKRENDPAKVKEAILAAKAAGRSRKDGNLERAMTIMEHAMALAPTNPQILIEMGQIREMHNELVEADQCYVKALAYDPGNSEALVLRARTTPLVSAIDRKMLRSVHDLRDEFNHLQHSTALRRMMRETYFLYVYHTVAIGGNTLSLGQTRAILESGMVIPGKSIREHNEVIGMDAALRFLNCSLLSKEHDEISIDDILEMHRRVLGNADPVEAGRIRTTQVYVGRFTPVSPEYVMEQLKDIVDWLNDESTLTIDPIERAAIAHYKLVLVHPFTDGNGRTARLLLNLIMMRSGFPPVILPVETRAEYYASLHVANLGDLRPFVRYVAKHSEASIQRYIGAMKTSSDNILNSGDSKLTPEESEVSEKIEAECRAGN
notes: C. elegans Fic protein FIC-1, residues 134-508, constitutively active mutant; transmembrane helix and membrane proximal domain excluded; Non-cleavable N-terminal 6x His tag; also called FIC-1 E274G; source: E. coli LOBSTR-RIL(DE3), purified (Ni-Sepharose, size-exclusion chromatography); not shown: His6, N-terminal, kept

Key:
[1] = molecular target: the molecule itself; test: cell-based or functional assay
[2] = molecular target: the molecule itself; test: crystal structure; hanging drop vapor diffusion, 18°C, 0.1 M MES pH 6.5, 1.1 M ammonium sulfate; two molecules in the asymmetric unit

| Protein | self-AMPylation of FIC-1 E274G/I298D relative to FIC-1 E274G (in vitro AMPylation with α33P-ATP, autoradiography) [1] [%] | target (histone H3) AMPylation by FIC-1 E274G/I298D relative to FIC-1 E274G (in vitro AMPylation with α33P-ATP, autoradiography) [1] [%] | binding result [2] |
| --- | --- | --- | --- |
| B1 | 46 | 11 |  |
| B2 |  |  | binds |
| B3 |  |  | binds |
